Measurements as given in paper PMC6745501, “Plant photoreceptors and their signaling components compete for COP1 binding via VP peptide motifs” (The EMBO Journal, 2019).
Where “and” joins values, the source holds several entries; their conditions need not be identical. Equal entries are not always repeated.

How the values were obtained:
COP1 WD40 domain [1] = experiment: Analytical size-exclusion chromatography binding assay; design: species or system Arabidopsis; conditions: Superdex 200 Increase 10/300 GL, ~4 μM per protein, 150 mM NaCl, 20 mM HEPES 7.4, 2 mM BME, protein pre-monomerized by UV-B
Experimental: 500 μl of the respective protein solution or a mixture (~ 4 μM per protein) was loaded sequentially onto the column, and elution at 0.75 ml/min was monitored by UV absorbance at 280 nm.

COP1 WD40 domain [2] = experiment: Grating-coupled interferometry (GCI) binding kinetics versus the COP1 WD40 domain; design: species or system Arabidopsis; conditions: for Kd: ligand COP1 (2,000 pg/mm^2), analyte pre-monomerized by UV-B, highest concentration 2 μM, 150 mM NaCl, 20 mM HEPES 7.4, 2 mM BME, 25°C, 1:1 binding model, read-out: Kd (dissociation constant), + UV-B
Experimental: For CRY2 activation, proteins were diluted to their final assay concentrations (as indicated in the figure legends) in Eppendorf tubes and exposed to 10 min of fluorescent light on ice.
The Creoptix WAVE system (Creoptix AG), a label‐free surface biosensor, was used to perform GCI experiments. All experiments were performed on 2PCH or 4PCH WAVEchips (quasi‐planar polycarboxylate surface; Creoptix AG). After a borate buffer conditioning (100 mM sodium borate pH 9.0, 1 M NaCl; Xantec), COP1 (ligand) was immobilized on the chip surface using standard amine‐coupling: 7 min activation [1:1 mix of 400 mM N‐(3‐dimethylaminopropyl)‐N′‐ethylcarbodiimide hydrochloride and 100 mM N‐hydroxysuccinimide (both Xantec)], injection of COP1 (10 μg/ml) in 10 mM sodium acetate pH 5.0 (Sigma) until the desired density was reached, and final quenching with 1 M ethanolamine pH 8.0 for 7 min (Xantec). […] Blank injections were used for double referencing and a dimethyl sulfoxide (DMSO) calibration curve for bulk correction. Analysis and correction of the obtained data were performed using the Creoptix WAVEcontrol software (applied corrections: X and Y offset; DMSO calibration; double referencing), and a one‐to‐one binding model or a heterogenous ligand model with bulk correction was used to fit all experiments.

Molecule	Interaction with the COP1 WD40 domain in size-exclusion chromatography, UV-B-activated (COP1 WD40 domain [1])	Kd (COP1 WD40 domain [2])	Binding to the COP1 WD40 domain in the absence of supplemental fluorescent light (COP1 WD40 domain [2]; ligand COP1 (2000 pg/mm2), analyte + no additional light, highest concentration 14 μM)
UVR8^12–381: UVR8 β-propeller core, residues 12–381 (protein, UniProt Q9FN03 12-381, looked up, fragment) APPRKVLIISAGASHSVALLSGDIVCSWGRGEDGQLGHGDAEDRPSPTQLSALDGHQIVSVTCGADHTVAYSQSGMEVYSWGWGDFGRLGHGNSSDLFTPLPIKALHGIRIKQIACGDSHCLAVTMEGEVQSWGRNQNGQLGLGDTEDSLVPQKIQAFEGIRIKMVAAGAEHTAAVTEDGDLYGWGWGRYGNLGLGDRTDRLVPERVTSTGGEKMSMVACGWRHTISVSYSGALYTYGWSKYGQLGHGDLEDHLIPHKLEALSNSFISQISGGWRHTMALTSDGKLYGWGWNKFGQVGVGNNLDQCSPVQVRFPDDQKVVQVSCGWRHTLAVTERNNVFAWGRGTNGQLGIGESVDRNFPKIIEALSVDG	interacts	~500 nM and 583 nM	–
CRY2: recombinant full-length Arabidopsis cryptochrome 2 (protein, left off: His10, N-terminal, cleaved | Twin-Strep, N-terminal, cleaved) MKMDKKTIVWFRRDLRIEDNPALAAAAHEGSVFPVFIWCPEEEGQFYPGRASRWWMKQSLAHLSQSLKALGSDLTLIKTHNTISAILDCIRVTGATKVVFNHLYDPVSLVRDHTVKEKLVERGISVQSYNGDLLYEPWEIYCEKGKPFTSFNSYWKKCLDMSIESVMLPPPWRLMPITAAAEAIWACSIEELGLENEAEKPSNALLTRAWSPGWSNADKLLNEFIEKQLIDYAKNSKKVVGNSTSLLSPYLHFGEISVRHVFQCARMKQIIWARDKNSEGEESADLFLRGIGLREYSRYICFNFPFTHEQSLLSHLRFFPWDADVDKFKAWRQGRTGYPLVDAGMRELWATGWMHNRIRVIVSSFAVKFLLLPWKWGMKYFWDTLLDADLECDILGWQYISGSIPDGHELDRLDNPALQGAKYDPEGEYIRQWLPELARLPTEWIHHPWDAPLTVLKASGVELGTNYAKPIVDIDTARELLAKAISRTREAQIMIGAAPDEIVADSFEALGANTIKEPGLCPSVSSNDQQVPSAVRYNGSKRVKPEEEEERDMKKSRGFDERELFSTAESSSSSSVFFVSQSCSLASEGKNLEGIQDSSDQITTSLGKNGCK	–	–	No binding was observed
UVR8^12–415: UVR8 core with C-terminus extended to include the VP peptide motif, residues 12–415 (protein, left off: His10, N-terminal, cleaved | Twin-Strep, N-terminal, cleaved) APPRKVLIISAGASHSVALLSGDIVCSWGRGEDGQLGHGDAEDRPSPTQLSALDGHQIVSVTCGADHTVAYSQSGMEVYSWGWGDFGRLGHGNSSDLFTPLPIKALHGIRIKQIACGDSHCLAVTMEGEVQSWGRNQNGQLGLGDTEDSLVPQKIQAFEGIRIKMVAAGAEHTAAVTEDGDLYGWGWGRYGNLGLGDRTDRLVPERVTSTGGEKMSMVACGWRHTISVSYSGALYTYGWSKYGQLGHGDLEDHLIPHKLEALSNSFISQISGGWRHTMALTSDGKLYGWGWNKFGQVGVGNNLDQCSPVQVRFPDDQKVVQVSCGWRHTLAVTERNNVFAWGRGTNGQLGIGESVDRNFPKIIEALSVDGASGQHIESSNIDPSSGKSWVSPAERYAVVPDETG	–	120 nM	–
